The target in test [1] is T1, human PDGFRα-Fc fusion protein (PDGFRα extracellular region [1-514 amino acids] and mouse IgG2a constant … (human; mouse, UniProt P16234 24-514).
T1 construct: not shown: mouse IgG2a constant region
Nature of the test: EIA, PDGFRα-Fc immobilised on plate, serially diluted COS-1 culture supernatant.

Test [2] addresses T1, human PDGFRα-Fc fusion protein (PDGFRα …). As to the kind of experiment: EIA, PDGFRα-Fc immobilised on plate, serially diluted COS-1 culture supernatant, anti-human IgG constant region HRP detection.

The values below come from patent WO2011161970A1 (dated 2011).

T1 sequence (P16234 24-514 limits assumed): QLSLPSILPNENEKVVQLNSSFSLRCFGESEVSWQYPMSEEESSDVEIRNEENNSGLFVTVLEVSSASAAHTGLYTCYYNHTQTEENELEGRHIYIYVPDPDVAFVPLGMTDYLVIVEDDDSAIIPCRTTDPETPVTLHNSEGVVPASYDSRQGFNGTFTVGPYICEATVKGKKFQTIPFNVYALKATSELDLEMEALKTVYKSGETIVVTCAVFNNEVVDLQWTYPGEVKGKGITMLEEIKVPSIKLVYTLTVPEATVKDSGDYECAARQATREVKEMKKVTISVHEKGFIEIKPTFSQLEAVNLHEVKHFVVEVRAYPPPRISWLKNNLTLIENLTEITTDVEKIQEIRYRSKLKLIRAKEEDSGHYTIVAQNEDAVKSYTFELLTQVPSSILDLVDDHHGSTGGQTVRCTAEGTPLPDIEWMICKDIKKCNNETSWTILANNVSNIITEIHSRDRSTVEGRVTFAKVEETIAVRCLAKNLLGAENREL

B1: 21A1 antibody (mouse anti-human PDGFRα monoclonal antibody, clone number 21A1) (antibody, V domains shown)
VH: EVKLLESGGGLVQPGGSLKLSCAASGFDFSIFWMSWVRQAPGKGLEWIGEINPDSSTINYTPSLKDKFIISRDNAKNTLYLQMSKVRSEDTALYFCARQRFGPYWGQGTLVTVSA
VL: DIVMTQSHKFMSTSVGDRVSITCKASQDVSTAVAWYQQKPGQSPNLLIYSASYRYTGVPDRFTGSGSGTDFTFTISSVQAEDLAVYYCQQYYSTPYTFGGGTKLEIKR
notes: no cleavage site is stated; also called monoclonal antibody 21A1; hPDGFRα(21A1) MoAb
Turning to B1, the binding result in test [1] was “binds”.

B2: 24A1 antibody (mouse anti-human PDGFRα monoclonal antibody, clone number 24A1) (antibody, V domains shown)
VH: DVQLQESGPGLVKPSQSLSLTCTVTGYSITSDYAWNWIRQFPGNKLEWVGYISYSGSTSYNPSLKSRISITRDTSKNQFFLQLNSVTTEDTATYYCARRDYRYGYWYFDVWGAGTTVTVSS
VL: DIQMNQSPSSLSASLGDTITITCHASQNIHVWLTWYQQKPGNIPKLLIYKASNLHTGVPSRFSGSGSGTGFTLTISSLQPEDIATYYCQQGQSYPWTFGGGTKLEIKR
notes: no cleavage site is stated; also called monoclonal antibody 24A1; mouse anti-PDGFRα antibody (24A1 antibody)
Take B2: the binding result in test [1] is “binds”.

B3: humanized anti-PDGFRα antibody (24A1) (antibody, human IgG1, kappa, V domains shown)
VH: DVQLQESGPGLVKPSQTLSLTCTVSGYSITSDYAWNWIRQPPGKGLEWVGYISYSGSTSYNPSLKSRISITRDTSKNQFSLKLSSVTAADTAVYYCARRDYRYGYWYFDVWGAGTTVTVSS
VL: DIQMNQSPSSVSASVGDRVTITCHASQNIHVWLTWYQQKPGKAPKLLIYKASNLHTGVPSRFSGSGSGTDFTLTISSLQPEDFATYYCQQGQSYPWTFGGGTKLEIKR
notes: also called humanized 24A1 antibody; Hu PDGFRa (24A1)
As for B3, in test [2], the binding result is “binds”.
